Measured values as given in US20050124678 (Paratek Pharmaceuticals, Inc., published 2005).

Columns and labels:
SoxS = SoxS (Escherichia coli, UniProt P0A9E2 P0A9E2:1-107)
Rob = Rob (Escherichia coli, UniProt P0ACI0 SEQ:1-289)
MarA = molecular target: T1, MarA (Escherichia coli, UniProt P0ACH5 P0ACH5:1-127)
T1 sequence: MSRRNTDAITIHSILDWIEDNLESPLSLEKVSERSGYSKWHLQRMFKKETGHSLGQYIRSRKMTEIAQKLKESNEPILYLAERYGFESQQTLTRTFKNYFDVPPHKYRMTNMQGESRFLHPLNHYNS

Measured: binding result

Rob, sequence (P0ACI0 whole entry): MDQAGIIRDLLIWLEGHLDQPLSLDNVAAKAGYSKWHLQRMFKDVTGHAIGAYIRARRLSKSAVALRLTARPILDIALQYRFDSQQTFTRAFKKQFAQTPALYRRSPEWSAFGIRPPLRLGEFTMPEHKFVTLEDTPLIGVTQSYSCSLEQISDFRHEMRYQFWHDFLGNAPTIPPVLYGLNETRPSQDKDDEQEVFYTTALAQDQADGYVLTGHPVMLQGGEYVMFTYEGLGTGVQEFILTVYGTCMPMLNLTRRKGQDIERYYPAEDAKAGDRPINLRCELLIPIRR
SoxS, sequence (P0A9E2 whole entry, one chain of several): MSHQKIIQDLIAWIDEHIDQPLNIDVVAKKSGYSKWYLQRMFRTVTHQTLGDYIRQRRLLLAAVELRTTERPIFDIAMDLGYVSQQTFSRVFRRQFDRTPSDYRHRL

B1: biotinylated target DNA (SEQ ID NO. 5) (dsDNA)
DNA 1: CCGATTTAGCAAAACGTGGCATCGGTC
DNA 2: GACCGATGCCACGTTTTGCTAAATCGG
binds: all assays above
